# Measurements reported in patent publication US20080254508.
# T1: holo-ZmaD
# T1 chain: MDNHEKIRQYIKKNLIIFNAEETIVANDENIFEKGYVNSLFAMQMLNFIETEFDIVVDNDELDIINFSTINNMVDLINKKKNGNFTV
# B1: ZmaN (protein)
# chain: MSKEIKCVVWDLDCTIWDGVLLESGTVTLKPGIYEIICELDRRGILQSVASKNNYEDAIAKLREFGIEEYFLYPEIHWNSKSSSIEKIRKNLNIGIDTFAFIDDQPFELEEVQSVHNDILCIHVNEYKSLLDLPRLQPKRITEDSGRRRLMYLENLKRTKDEEEYEGPKEEFLASLGMNFVISEAREEDLQRAEELTVRTNQLNSTGITYDYDELNYYRNHPDYLLLVCELSDKYGSYGKIGLTLVKRTEEADCLKLLLMSCRVMSRGVGTILLTYLMERTKQAGKRFLAEFRQTDRNRMMFVTYRLAGFKETSNENGILILEHNLENINPYPHYINIQFPETPTDVDRGEVEICNKQL
# Tests used:
# holo-ZmaD [1] = test system: holo-ZmaD
# holo-ZmaH [2] = test system: holo-ZmaH
# holo-ZmaH [3] = target: holo-ZmaH; remark: listed apart in the source
# holo-ZmaD [4] = target: T1, holo-ZmaD
Molecule,aminoacylation of holo-ZmaD (holo-ZmaD replaced holo-ZmaH) (holo-ZmaD [1]),formation of seryl-ZmaH (HPLC elution shift and MS mass of holo-ZmaH) (holo-ZmaH [2]),formation of glyceryl-ACP (control reaction in which holo-ZmaH replaced holo-ZmaD) (holo-ZmaH [3]),formation of glyceryl-ZmaD (HPLC elution shift and MALDI-TOF MS mass shift of holo-ZmaD) (holo-ZmaD [4]),"rate of holo-ZmaD modification, with 3-PGPK (holo-ZmaD [4])","rate of holo-ZmaD modification, without 3-PGPK (holo-ZmaD [4])"
ZmaJ,ZmaJ was not able to aminoacylate holo-ZmaD,"Incubation of holo-ZmaH with ZmaJ, L-Ser, and ATP resulted in a change in the holo-ZmaH elution time from the HPLC, and the mass of the purified product was consistent with the formation of seryl-ZmaH",,,,
B1,,,holo-ZmaH was not a substrate for ZmaN-catalyzed formation of glyceryl-ACP,The mass of holo-ZmaD had shifted to be consistent with the formation of glyceryl-ZmaD,1.44 nmol min-1 with 3-PGPK,0.08 nmol min-1 without 3-PGPK
